No end group written: not given here.

This is an account of results in PMC7723274.

Test [1] deals with hexon HVR1 chimera virion (HAdV-5 with hexon HVR1 replaced by that of HAdV-64) (human adenovirus 5 (HAdV-5) | human adenovirus 64 (HAdV-64)) (UniProt P04133).
The target in test [2] is HAdV-64 virion (E3 deleted, replication-competent HAdV-64 virus containing a CMV-eGFP ORF, WT HAdV-64 capsid) (human adenovirus 64 (HAdV-64)).
The target of test [3] is HAdV-5 virion (E1/E3-deleted, replication-defective HAdV-5 vector with an eGFP cassette) (human adenovirus 5 (HAdV-5)) (UniProt P04133).
For test [4], the target named is C4 vertex chimera virion (HAdV-5 with penton base residues 288 to 571 from HAdV-64 and the DTET to GYAR mutation in fiber) (human adenovirus 5 (HAdV-5) | human adenovirus 64 (HAdV-64)) (UniProt P04133).
Test [5] addresses HAdV-5 virion (E1/E3-deleted, replication-defective HAdV-5 vector with an eGFP cassette) (human adenovirus 5 (HAdV-5)) (UniProt P04133). The source holds these as a separate data set.
Test [6] concerns the target hexon HVR1 chimera virion (HAdV-5 with hexon HVR1 replaced by that of HAdV-64) (human adenovirus 5 (HAdV-5) | human adenovirus 64 (HAdV-64)) (UniProt P04133). This is another data set of the same source.
The target in test [7] is hexon HVR1/C4 vertex chimera virion (C4 chimera with hexon HVR1 replaced by that of HAdV-64) (human adenovirus 5 (HAdV-5) | human adenovirus 64 (HAdV-64)) (UniProt P04133).
Test [8] concerns the target C4 vertex chimera virion (HAdV-5 with penton base residues 288 to 571 from HAdV-64 and the DTET to GYAR mutation in fiber) (human adenovirus 5 (HAdV-5) | human adenovirus 64 (HAdV-64)) (UniProt P04133). Briefly: co-sedimentation; 2.5 μg purified virus with 20 μM HD5 in 150 mM NaCl, 20 mM Tris, 5% glycerol, 1 mM MgCl2, on ice 45 min; discontinuous Histodenz gradient, 4°C, virus band collected; SDS-PAGE, fluorescent stain; HD5 normalised to proteins V and VII and read against a standard curve.

Test [9] deals with HAdV-5 virion (E1/E3-deleted, replication-defective HAdV-5 vector with an eGFP cassette) (human adenovirus 5 (HAdV-5)) (UniProt P04133). Described as above.
For test [10], the target named is HAdV-64 virion (E3 deleted, replication-competent HAdV-64 virus containing a CMV-eGFP ORF, WT HAdV-64 capsid) (human adenovirus 64 (HAdV-64)). The description is as above.
The target of test [11] is hexon HVR1 chimera virion (HAdV-5 with hexon HVR1 replaced by that of HAdV-64) (human adenovirus 5 (HAdV-5) | human adenovirus 64 (HAdV-64)) (UniProt P04133). Described as above.

B1: Human defensin 5 (peptide)
peptide: ATCYCRTGRCATRESLSGVCEISGRLYRLCCR
modifications: not fully specified; cysteine pairing not given here
In turn, B1 registered an HD5 IC50 of infection on A549 cells, against HAdV-5 (fold over HAdV-5) in test [1] of 5. In test [2], this molecule had an infectivity on A549 cells of virus incubated with 5 μM or 10 μM HD5 (protocol 1) of 4 to 5 fold. Moreover, the binding of AF488-labeled virus to A549 cells after pre-incubation with 2.5, 5 and 10 μM HD5, fold change in GMF against no HD5 in [3] lay in the range of 1.4 to 2.1 fold. In addition, the HD5 concentration at which 50% of fiber stays capsid-associated after heating to 49.3°C (fully associated at 20 μM HD5) in test [4] is 5 µM. The molecule also displayed an HD5 concentration at which 50% of fiber stays capsid-associated after heating to 48°C (fully associated at 20 μM HD5) in test [5] of 5 µM. For the same molecule, the HD5 concentration at which 50% of fiber stays capsid-associated after heating to 48°C, against HAdV-5 (fully associated at 20 μM HD5) (fold higher than HAdV-5) in test [6] was greater than 2. Besides, the HD5 concentration at which 50% of fiber stays capsid-associated after heating to 49.3°C, against HAdV-5 (fully associated at 20 μM HD5) (fold lower than HAdV-5) in test [7] came out at 2. In test [8], this molecule registered a fold more HD5 bound per virion than to HAdV-5 (fold more than HAdV-5) of 2.3. Besides, the stoichiometry N (molecules of HD5 per virion) in [9] worked out at 7090. Moreover, the figures for the fold less HD5 bound per virion than to HAdV-5 (fold less than HAdV-5) in test [10] and in test [11] were 83 and 5, respectively.
